Measurements reported in patent publication US20190218553, “VON WILLEBRAND FACTOR (VWF)-TARGETING AGENTS AND METHODS OF USING THE SAME” (DUKE UNIVERSITY, published 2019).

Key:
[1] = target: T1, von Willebrand factor (VWF) (Homo sapiens, UniProt P04275 P04275:764-2813); assay: filter; Bmax 49%; 2 mM CaCl2, 37 C; conditions: Haematologic Technologies Inc, label: 5'-32P
Protocol: (§1) Affinity constants (Kd values) were determined using double-filter nitrocellulose filter binding assays (Rusconi et al, Thromb. Haemost. $4:841-848 (2000)). All binding studies were performed in binding buffer F (20 mM HEPES, pH 7.4, 150 mM NaCl, 2 mM CaCl₂, and 0.01% BSA) at 37° C. Human purified VWF (factor VIII free) was purchased from Haematologic Technologies Inc. (Essex Junction, Vt.) and used in the double-filter nitrocellulose filter binding assay to determine the Kd of the aptamers. Briefly, RNA were end-labeled at the 5′ end with T4 polynucleotide kinase (New England Biolabs, Beverly, Mass.) and [γ³²P] ATP (Amersham Pharmacia Biotech, Piscataway, N.J.) (Fitzwater and Polisky, Methods Enzymol. 267:275-301 (1996)). End-labeled RNA was diluted in binding buffer F, heat denatured at 65° C. for 5 minutes, and subsequently equilibrated at 37° C. Direct binding was performed by incubating trace ³²P-RNA with varying concentrations of VWF protein in binding buffer F at 37° C. for 5 min. The fraction of the nucleic acid-protein complex which bound to the nitrocellulose membrane was quantified with a phosphorimager (Molecular Dynamics, Sunnyvale, Calif.). Non-specific binding of the radiolabeled nucleic acid was subtracted out of the binding such that only specific binding remained (Wong and Lohman, Proc. Natl. Acad. Sci. USA 90:5428-5432 (1993)).

[2] = target: T1, von Willebrand factor (VWF); assay: filter; Bmax 56%; 2 mM CaCl2, 37 C; conditions: tags: factor VIII free, Haematologic Technologies Inc; label: 5'-32P
Protocol: as §1

[3] = target: T1, von Willebrand factor (VWF); assay: filter; Bmax 58%; 2 mM CaCl2, 37 C; conditions: tags: factor VIII free, Haematologic Technologies Inc; label: 5'-32P
Protocol: as §1

[4] = target: T1, von Willebrand factor (VWF); assay: filter; Bmax 13%; 2 mM CaCl2, 37 C; conditions: tags: factor VIII free, Haematologic Technologies Inc; label: 5'-32P
Protocol: as §1

[5] = target: T1, von Willebrand factor (VWF); assay: filter; Bmax 67%; 2 mM CaCl2, 37 C; conditions: Haematologic Technologies Inc, label: 5'-32P
Protocol: as §1

[6] = target: T1, von Willebrand factor (VWF); assay: filter; Bmax 73%; 2 mM CaCl2, 37 C; conditions: Haematologic Technologies Inc, label: 5'-32P
Protocol: as §1

[7] = target: T1, von Willebrand factor (VWF); assay: filter; Bmax 88%; 2 mM CaCl2, 37 C; conditions: Haematologic Technologies Inc, label: 5'-32P
Protocol: as §1

[8] = target: T1, von Willebrand factor (VWF); assay: filter; Bmax 57%; 2 mM CaCl2, 37 C; conditions: tags: factor VIII free, Haematologic Technologies Inc; label: 5'-32P
Protocol: as §1

[9] = target: T1, von Willebrand factor (VWF); assay: filter; Bmax 54%; 2 mM CaCl2, 37 C; conditions: tags: factor VIII free, Haematologic Technologies Inc; label: 5'-32P
Protocol: as §1

[10] = target: T1, von Willebrand factor (VWF); assay: filter; Bmax 71%; 2 mM CaCl2, 37 C; conditions: Haematologic Technologies Inc, label: 5'-32P
Protocol: as §1

[11] = target: T1, von Willebrand factor (VWF); assay: filter; Bmax 87%; 2 mM CaCl2, 37 C; conditions: Haematologic Technologies Inc, label: 5'-32P
Protocol: as §1

[12] = target: T1, von Willebrand factor (VWF); assay: filter; Bmax 80%; 2 mM CaCl2, 37 C; conditions: tags: factor VIII free human purified VWF, Haematologic Technologies Inc; label: 5'-32P
Protocol: as §1

[13] = tags: factor VIII free human purified VWF

ACGAACUGCCCUCGAUCGACGCACAGACGU (ssRNA, rAfCrGmAmAmCfUmGfCfCfCfUmCmGmAmUmCmGrAfCmGfCmAmCmAmGmAfCrGfU-idT) [T59 vrt3]
Kd ([1]; tags: factor VIII free): 288 nM

ACGAACUGCCCUCAGACUUAUGUCUGACGCACAGACGU (ssRNA, 2'-F C and U; 2'-OH A and G; 3' idT) [T51]
Kd [2]: 17 nM

ACGAACUGCCCUCAGCAUUAUUGCUGACGCACAGACGU (ssRNA, 2'-F C and U; 2'-OH A and G; 3' idT) [T52]
Kd [3]: 16 nM

ACGAACUGCCCUAUUAUUACGCACAGACGU (ssRNA, 2'-F C and U; 2'-OH A and G; 3' idT) [T64]
Kd [4]: 54 nM

ACGAACUGCCCUCGAUCGACGCACAGACGU (ssRNA, mAmCmGmAmAmCmUmGfCfCfCmUmCmGmAmUmCmGmAfCrGfCmAmCmAmGmAmCmGmUidT) [DTRI-008]
Kd ([5]; tags: factor VIII free): 7 nM

ACGAACUGCCCUCGUAAGACGCACAGACGUUUUUU (ssRNA, mAmCmGmAmAmCmUmGfCfCfCmUmCmGmUmAmAmGmAfCrGfCmAmCmAmGmAmCmGfUmUmUmUmUmUidT) [DTRI-012]
Kd ([6]; tags: factor VIII free): 5.5 nM

B1: T15 (ssRNA)
RNA: GGGAGGUGGACGAACUGCCCUCAGCUACCAUGUUGCUGACGCACAGACGACUCGCUG
modifications: 2'-F C and U; 2'-OH A and G
Kd [4]: 83 nM

ACGAACUGCCCUCGUUUCAUCGACGCACAGACGU (ssRNA, 2'-F C and U; 2'-OH A and G; 3' idT) [T86]
Kd ([7]; tags: factor VIII free): 16 nM

ACGAACUGCCCUCGUUUCAUCGACGCACAGACGU (ssRNA, 2'-F C9,C10,C11,C24,G25,C26; rest 2'-OMe; 3' idT) [T86 vrt7]
Kd [7, 13]: 50 nM

ACGAACUGCCCUCGUUUCAUCGACGCACAGACGU (ssRNA, 2'-F C9,C10,C11,C24,C26; ribo G25; rest 2'-OMe; 3' idT) [T86 vrt4]
Kd [7, 13]: 12 nM

ACGAACUGCCCUCGAUCGACGCACAGACGU (ssRNA, mAmCmGmAmAmCfUrGfCfCfCmUmCmGmAmUmCmGmAfCmGfCmAmCmAmGmAmCmGfU-idT) [T59 vrt16]
Kd [8]: 132 nM

B2: T11 (ssRNA)
RNA: GGGAGGACGAACUGCCCUCAGCUACUUUCAUGUUGCUGACGCACAGACGACUCGCUG
modifications: 2'-F C and U; 2'-OH A and G
Kd [9]: 16.5 nM

ACGAACUGCCCUCGAUUUCGACGCACAGACGU (ssRNA, 2'-F C and U; 2'-OH A and G; 3' idT) [T60]
Kd ([10]; tags: factor VIII free): 12.5 nM

ACGAACUGCCCUCUUUUUUGACGCACAGACGU (ssRNA, 2'-F C and U; 2'-OH A and G; 3' idT) [T94]
Kd ([11]; tags: factor VIII free): 5 nM

ACGAACUGCCCUCUUUUUUGACGCACAGACGU (ssRNA, 2'-F C9,C10,C11,C22,G23,C24; rest 2'-OMe; 3' idT) [T94 vrt7]
Kd [10, 13]: 29 nM

B3: T25 vrt5 (ssRNA)
RNA: ACGAACUGCCCUCAGCUACUUUCAUGUUGCUGACGCACAGACGU
modifications: rAfCrGmAmAfCfUrGfCfCfCfUfCrArGfCfUrAfCfUfUfUfCrAfUrGfUfUrGfCfUrGrAfCrGfCrAfCmAmGmAfCrGfU-idT
Kd [3]: 7.1 nM

B4: T25 vrt6 (ssRNA)
RNA: B3 RNA
modifications: rAfCrGmAmAmCfUrGfCfCfCfUfCrArGfCfUrAfCfUfUfUfCrAfUrGfUfUrGfCfUrGrAfCrGfCrAmCmAmGmAfCrGfU-idT
Kd ([5]; tags: factor VIII free): 3.1 nM

B5: T25 vrt17 (ssRNA)
RNA: B3 RNA
modifications: rAfCrGrArAfCmUrGfCfCfCfUfCrArGfCfUrAfCfUfUfUfCrAfUrGfUfUrGfCfUrGrAfCrGfCmAfCrArGrAfCrGfU-idT
Kd [2]: 23 nM

B6: T25 vrt15 (ssRNA)
RNA: B3 RNA
modifications: rAmCrGrArAfCfUrGfCfCfCfUfCrArGfCfUrAfCfUfUfUfCrAfUrGfUfUrGfCfUrGrAfCrGfCrAfCrArGrAfCmGfU-idT
Kd ([6]; tags: factor VIII free): 7.3 nM

B7: T25 vrt11 (ssRNA)
RNA: B3 RNA
modifications: rAfCrGrArAfCfUrGfCfCfCfUfCrArGfCfUrAfCfUfUfUfCmAfUmGfUfUrGfCfUrGrAfCrGfCrAfCrArGrAfCrGfU-idT
Kd [8]: 7.2 nM

B8: T25 vrt14 (ssRNA)
RNA: B3 RNA
modifications: mAfCrGrArAfCfUrGfCfCfCfUfCrArGfCfUrAfCfUfUfUfCrAfUrGfUfUrGfCfUrGrAfCrGfCrAfCrArGrAfCrGmU-idT
Kd [9]: 9.2 nM

B9: T25 vrt9 (ssRNA)
RNA: B3 RNA
modifications: rAfCrGrArAfCfUrGfCfCfCfUfCmAmGfCfUmAfCfUfUfUfCrAfUrGfUfUmGfCfUmGrAfCrGfCrAfCrArGrAfCrGfU-idT
Kd [8]: 9.8 nM

ACGAACUGCCCUCAGCUACUUUCAUGUUGCUGACGCACAGACGU (ssRNA, 2'-F C and U; 2'-OH A and G; 3' idT) [T25]
Kd [9]: 13.4 nM

ACGAACUGCCCUCGUAUUAUUUCGACGCACAGACGU (ssRNA, 2'-F C9,C10,C11,C26,C28,U36; ribo G27; rest 2'-OMe; 3' idT) [T89 vrt2]
Kd [12]: 12 nM

ACGAACUGCCCUCGUAUUAUUUCGACGCACAGACGU (ssRNA, 2'-F C9,C10,C11,C26,C28,U36; rest 2'-OMe; 3' idT) [T89 vrt3]
Kd [1, 13]: 63 nM

ACGAACUGCCCUCGUAUUAUUUCGACGCACAGACGU (ssRNA, 2'-F C9,C10,C11,C26,G27,C28,U36; rest 2'-OMe; 3' idT) [T89 vrt6]
Kd [6, 13]: 34.5 nM

CCGAACUGCCCUCGAUCGACGCACAGACGG (ssRNA, mCmCmGmAmAmCmUmGfCfCfCmUmCmGmAmUmCmGmAfCrGfCmAmCmAmGmAmCmGmGidT) [DTRI-013]
Kd [3]: 5.4 nM

B10: T83 vrt1 (ssRNA)
RNA: ACGAACUGCCCUCGAUCGACGCACAGACGUAAAAA
modifications: 2'-F C2,U7,C9,C10,C11,U12,C20,C22,C28,U30; ribo A1,G3,G8,A19,G21,A23,G29; rest 2'-OMe; 3' idT
Kd [6, 13]: 2.1 nM

ACGAACUGCCCUCGAUCGACGCACAGACGUACCCG (ssRNA, 2'-F C9,C10,C11,C20,C22; ribo G21; rest 2'-OMe; 3' idT) [T82 vrt4]
Kd [11, 13]: 38.5 nM

ACGAACUGCCCUCGAUCGACGCACAGACGUAAAAA (ssRNA, 2'-F C9,C10,C11,C20,G21,C22,U30; rest 2'-OMe; 3' idT) [T83 vrt6]
Kd [5, 13]: 209 nM

ACGAACUGCCCUCGAUCGACGCACAGACGUACACG (ssRNA, 2'-F C9,C10,C11,C20,G21,C22,U30; rest 2'-OMe; 3' idT) [T84 vrt6]
Kd [10, 13]: 149 nM

ACGAACUGCCCUCGAUCGACGCACAGACGUACCCG (ssRNA, 2'-F C9,C10,C11,C20,G21,C22,U30; rest 2'-OMe; 3' idT) [T82 vrt6]
Kd [5, 13]: 223 nM

ACGAACUGCCCUCAGCAUUUCAUUGCUGACGCACAGACGU (ssRNA, 2'-F C and U; 2'-OH A and G; 3' idT) [T40]
Kd [9]: 11 nM

ACGAACUGCCCUCAGCACUUAUGUGCUGACGCACAGACGU (ssRNA, 2'-F C and U; 2'-OH A and G; 3' idT) [T41]
Kd ([1]; tags: factor VIII free): 8.6 nM

ACGAACUGCCCUCGAUCGACGCACAGACGU (ssRNA, rAfCrGmAmAmCfUmGfCfCfCfUmCmGmAmUmCmGrAfCrGfCrAmCmAmGmAfCrGfU-idT) [T59 vrt11]
Kd ([7]; tags: factor VIII free): 1.3 nM

B11: T16 (ssRNA)
RNA: GGGAGGUGGACGAACUGCCCUCAGCUACGUUGCUGACGCACAGACGACUCGCUG
modifications: 2'-F C and U; 2'-OH A and G
Kd [4]: 126 nM

ACGAACUGCCCUCAGCUAUUUCAUUUGCUGACGCACAGACGU (ssRNA, 2'-F C and U; 2'-OH A and G; 3' idT) [T36]
Kd [3]: 11 nM

ACGAACUGCCCUCGAUCGACGCACAGACGU (ssRNA, rAfCrGmAmAmCfUrGfCfCfCmUmCmGmAmUmCmGmAfCrGfCrAmCmAmGmAfCrGfU-idT) [T59 vrt2]
Kd ([11]; tags: factor VIII free): 5.5 nM

B12: T90 vrt1 (ssRNA)
RNA: ACGAACUGCCCUCUAUUAUUUGACGCACAGACGU
modifications: 2'-F C2,U7,C9,C10,C11,U12,C24,C26,C32,U34; ribo A1,G3,G8,A23,G25,A27,G33; rest 2'-OMe; 3' idT
Kd [11, 13]: 0.9 nM

ACGAACUGCCCUCUAUUAUUUGACGCACAGACGU (ssRNA, 2'-F C9,C10,C11,C24,G25,C26; rest 2'-OMe; 3' idT) [T90 vrt7]
Kd [12]: 42 nM

ACGAACUGCCCUCUAUUAUUUGACGCACAGACGU (ssRNA, 2'-F C9,C10,C11,C24,G25,C26,U34; rest 2'-OMe; 3' idT) [T90 vrt6]
Kd [12]: 46 nM
